# Laboratory results published in article PMC5943054.
# Target: TgPLP1 MACPF domain (residues 462 to 809, N720Q/N744Q), trypsinized in situ (TMH2 cut away) (Toxoplasma gondii) (UniProt V5BCL0)
# Test: crystal structure; second crystal form of the trypsinized MACPF domain, about 5 Å (5.0 in text, 5.11 in Table 1); 0.1 M Hepes pH 7.5, 10% alcohol mixture, 15% PEG-1000, 15% PEG-3350, 15% MPD; ring assembly, rigid-body refinement only
substance,measurement,value
"TgPLP1 MACPF domain (residues 462 to 809, N720Q/N744Q), trypsinized in situ (TMH2 cut away) (from UniProt V5BCL0 462-809) (domain or fragment)",stoichiometry N,6
